Measured values taken from the Immune Epitope Database (IEDB).

How the values were obtained:
Assay in all cases: IEDB peptide-MHC binding, purified MHC/competitive/radioactivity; filed as Kd, often an IC50 or EC50 that approximates it; ≥ and ≤ were set here for values at or beyond the usual limits of such assays
HLA-A*31:01 = target: HLA-A*31:01
HLA-A*11:01 = target: HLA-A*11:01
HLA-A*33:01 = target: HLA-A*33:01
HLA-A*03:01 = target: HLA-A*03:01
HLA-A*68:01 = target: HLA-A*68:01
[1] = source organism: Vaccinia virus WR
[2] = source organism: Dengue virus 3 Martinique/1243/1999
[3] = source organism: SARS coronavirus Tor2
[4] = source organism: Dengue virus 4 Philippines/H241/1956
[5] = source organism: Mammarenavirus brazilense
[6] = source organism: Dengue virus 1 Brazil/97-11/1997
[7] = source organism: Dengue virus 2 Jamaica/1409/1983
[8] = source organism: Mammarenavirus guanaritoense

## IIGHIGHHY
HLA-A*31:01; [1]
  Kd: ≥ 77900 nM
HLA-A*11:01; [1]
  Kd: 4620 nM
HLA-A*33:01; [1]
  Kd: ≥ 77.7 µM
HLA-A*03:01; [1]
  Kd: 6390 nM
HLA-A*68:01; [1]
  Kd: ≥ 23100 nM

## IILAALFMY
HLA-A*31:01; [1]
  Kd: 11400 nM
HLA-A*11:01; [1]
  Kd: 0.307 nM
HLA-A*33:01; [1]
  Kd: 13.3 µM
HLA-A*03:01; [1]
  Kd: 20.5 nM
HLA-A*68:01; [1]
  Kd: ≥ 55700 nM

## ILFEEVMRGK
HLA-A*03:01; [2]
  Kd: 8.96 nM

## ITKEIKNRDK
HLA-A*31:01; [1]
  Kd: ≥ 10000 nM
HLA-A*11:01; [1]
  Kd: 18400 nM
HLA-A*33:01; [1]
  Kd: ≥ 35.8 µM
HLA-A*03:01; [1]
  Kd: 7890 nM
HLA-A*68:01; [1]
  Kd: 2210 nM

## IVPFWITAIY
HLA-A*31:01; [3]
  Kd: 1320 nM
HLA-A*11:01; [3]
  Kd: 1020 nM
HLA-A*33:01; [3]
  Kd: 2.36 µM
HLA-A*03:01; [3]
  Kd: 71 nM
HLA-A*68:01; [3]
  Kd: 178 nM

## KIKQDVRDK
HLA-A*31:01; [1]
  Kd: 9940 nM
HLA-A*11:01; [1]
  Kd: 19800 nM
HLA-A*33:01; [1]
  Kd: ≥ 77.7 µM
HLA-A*03:01; [1]
  Kd: 241 nM
HLA-A*68:01; [1]
  Kd: ≥ 24900 nM

## KKKNPRLCTR
HLA-A*31:01; [4]
  Kd: 1040 nM

## KMAVEVGSIR
HLA-A*31:01; [1]
  Kd: 1670 nM
HLA-A*11:01; [1]
  Kd: ≥ 21100 nM
HLA-A*33:01; [1]
  Kd: 13.7 µM
HLA-A*03:01; [1]
  Kd: 4540 nM
HLA-A*68:01; [1]
  Kd: 95.8 nM

## KTNSTVDVR
HLA-A*31:01; [1]
  Kd: 11 nM
HLA-A*11:01; [1]
  Kd: 88.1 nM
HLA-A*33:01; [1]
  Kd: 13.3 µM
HLA-A*03:01; [1]
  Kd: 1880 nM
HLA-A*68:01; [1]
  Kd: 19.9 nM

## KVLAARLKR
HLA-A*31:01; [1]
  Kd: 663 nM
HLA-A*11:01; [1]
  Kd: 158 nM
HLA-A*33:01; [1]
  Kd: 18.8 µM
HLA-A*03:01; [1]
  Kd: 633 nM
HLA-A*68:01; [1]
  Kd: 6.07 nM

## LFFTTTLFLH
HLA-A*31:01; [5]
  Kd: 232 nM
HLA-A*11:01; [5]
  Kd: 4120 nM
HLA-A*33:01; [5]
  Kd: 0.191 µM
HLA-A*03:01; [5]
  Kd: 771 nM
HLA-A*68:01; [5]
  Kd: 445 nM

## LIHDNIMYTY
HLA-A*31:01; [1]
  Kd: 4160 nM
HLA-A*11:01; [1]
  Kd: 238 nM
HLA-A*33:01; [1]
  Kd: ≥ 32.3 µM
HLA-A*03:01; [1]
  Kd: 45.3 nM
HLA-A*68:01; [1]
  Kd: 566 nM

## LILAEYIRHR
HLA-A*31:01; [1]
  Kd: 80.4 nM
HLA-A*11:01; [1]
  Kd: 738 nM
HLA-A*33:01; [1]
  Kd: 5.39 µM
HLA-A*03:01; [1]
  Kd: 2190 nM
HLA-A*68:01; [1]
  Kd: 1730 nM

## LLSINSSFY
HLA-A*31:01; [1]
  Kd: 2390 nM
HLA-A*11:01; [1]
  Kd: 479 nM
HLA-A*33:01; [1]
  Kd: 6.34 µM
HLA-A*03:01; [1]
  Kd: 986 nM
HLA-A*68:01; [1]
  Kd: 3460 nM

## LLYAAEMVEY
HLA-A*31:01; [1]
  Kd: 236 nM
HLA-A*11:01; [1]
  Kd: 0.576 nM
HLA-A*33:01; [1]
  Kd: 17.1 µM
HLA-A*03:01; [1]
  Kd: 3.93 nM
HLA-A*68:01; [1]
  Kd: 9.35 nM

## LMIVARHER
HLA-A*31:01; [4]
  Kd: 5.18 nM
HLA-A*33:01; [4]
  Kd: 0.116 µM

## LMPILTLTR
HLA-A*31:01; [3]
  Kd: 723 nM
HLA-A*11:01; [3]
  Kd: 1130 nM
HLA-A*33:01; [3]
  Kd: 15 µM
HLA-A*03:01; [3]
  Kd: 102 nM
HLA-A*68:01; [3]
  Kd: 1720 nM

## LSFSNTIQSY
HLA-A*31:01; [1]
  Kd: ≥ 70000 nM
HLA-A*11:01; [1]
  Kd: 1370 nM
HLA-A*33:01; [1]
  Kd: ≥ 70 µM
HLA-A*03:01; [1]
  Kd: 7430 nM
HLA-A*68:01; [1]
  Kd: 4670 nM

## LSKWHTSAR
HLA-A*31:01; [1]
  Kd: 1.34 nM
HLA-A*11:01; [1]
  Kd: 3430 nM
HLA-A*33:01; [1]
  Kd: 0.0153 µM
HLA-A*03:01; [1]
  Kd: 5830 nM
HLA-A*68:01; [1]
  Kd: 20.7 nM

## LTDTEYRAR
HLA-A*31:01; [1]
  Kd: ≥ 77900 nM
HLA-A*11:01; [1]
  Kd: ≥ 53900 nM
HLA-A*33:01; [1]
  Kd: ≥ 77.7 µM
HLA-A*03:01; [1]
  Kd: ≥ 78000 nM
HLA-A*68:01; [1]
  Kd: ≥ 42600 nM

## MFAVGLLFRR
HLA-A*31:01; [6]
  Kd: 19000 nM
HLA-A*33:01; [6]
  Kd: 0.00166 µM
HLA-A*68:01; [6]
  Kd: 61.8 nM

## MLPPCYNFLK
HLA-A*31:01; [3]
  Kd: 129 nM
HLA-A*11:01; [3]
  Kd: 9.53 nM
HLA-A*33:01; [3]
  Kd: 0.138 µM
HLA-A*03:01; [3]
  Kd: 6.77 nM
HLA-A*68:01; [3]
  Kd: 2.61 nM

## MVGANASDR
HLA-A*68:01; source organism: Dengue virus 1 Singapore/S275/1990
  Kd: 45.5 nM

## MVLLQMEDK
HLA-A*11:01; [7]
  Kd: 2010 nM

## NIPTAIQQVR
HLA-A*68:01; [2]
  Kd: 72.4 nM

## NLEMIDERKY
HLA-A*31:01; [1]
  Kd: ≥ 24200 nM
HLA-A*11:01; [1]
  Kd: ≥ 69800 nM
HLA-A*33:01; [1]
  Kd: ≥ 70 µM
HLA-A*03:01; [1]
  Kd: ≥ 70100 nM
HLA-A*68:01; [1]
  Kd: ≥ 21400 nM

## NLTETFRDY
HLA-A*31:01; [1]
  Kd: ≥ 77900 nM
HLA-A*11:01; [1]
  Kd: ≥ 77900 nM
HLA-A*33:01; [1]
  Kd: ≥ 77.7 µM
HLA-A*03:01; [1]
  Kd: ≥ 78000 nM
HLA-A*68:01; [1]
  Kd: ≥ 37400 nM

## NMKQCTNDIY
HLA-A*31:01; [1]
  Kd: ≥ 57400 nM
HLA-A*11:01; [1]
  Kd: 16400 nM
HLA-A*33:01; [1]
  Kd: ≥ 65.7 µM
HLA-A*03:01; [1]
  Kd: 211 nM
HLA-A*68:01; [1]
  Kd: 2780 nM

## NVAYNVVNK
HLA-A*31:01; [3]
  Kd: 7170 nM
HLA-A*11:01; [3]
  Kd: 121 nM
HLA-A*33:01; [3]
  Kd: 19.3 µM
HLA-A*03:01; [3]
  Kd: 469 nM
HLA-A*68:01; [3]
  Kd: 30.8 nM

## NYKERMVTFK
HLA-A*33:01; [4]
  Kd: 1.4 µM

## PFTQHLLNIR
HLA-A*31:01; [1]
  Kd: 167 nM
HLA-A*11:01; [1]
  Kd: 2890 nM
HLA-A*33:01; [1]
  Kd: 6.51 µM
HLA-A*03:01; [1]
  Kd: ≥ 22300 nM
HLA-A*68:01; [1]
  Kd: 224 nM

## PIYSHTERDK
HLA-A*31:01; [1]
  Kd: 977 nM
HLA-A*11:01; [1]
  Kd: 6590 nM
HLA-A*33:01; [1]
  Kd: ≥ 54.6 µM
HLA-A*03:01; [1]
  Kd: 932 nM
HLA-A*68:01; [1]
  Kd: 14000 nM

## PLFHGGEPIK
HLA-A*31:01; [1]
  Kd: ≥ 70000 nM
HLA-A*11:01; [1]
  Kd: ≥ 28700 nM
HLA-A*33:01; [1]
  Kd: ≥ 70 µM
HLA-A*03:01; [1]
  Kd: 18300 nM
HLA-A*68:01; [1]
  Kd: ≥ 70200 nM

## QLRSLTEILK
HLA-A*03:01; source organism: Homo sapiens
  Kd: 55 nM

## QQLEDIFMR
HLA-A*31:01; [1]
  Kd: 1190 nM
HLA-A*11:01; [1]
  Kd: 13400 nM
HLA-A*33:01; [1]
  Kd: 4.07 µM
HLA-A*03:01; [1]
  Kd: 2710 nM
HLA-A*68:01; [1]
  Kd: 5480 nM

## QSVLCVKKFY
HLA-A*31:01; [1]
  Kd: 15600 nM
HLA-A*11:01; [1]
  Kd: 13200 nM
HLA-A*33:01; [1]
  Kd: ≥ 24.5 µM
HLA-A*03:01; [1]
  Kd: 1370 nM
HLA-A*68:01; [1]
  Kd: 5670 nM

## TKTAVNMLTH
HLA-A*31:01; [8]
  Kd: 7550 nM
HLA-A*33:01; [8]
  Kd: ≥ 35.7 µM
HLA-A*68:01; [8]
  Kd: 870 nM

## TLLVWHTWQK
HLA-A*03:01; [2]
  Kd: 45.5 nM

## TTLSRTSKK
HLA-A*11:01; [7]
  Kd: 158 nM
HLA-A*03:01; [7]
  Kd: 14.3 nM
HLA-A*68:01; [7]
  Kd: 302 nM

## TTTIFAGHLK
HLA-A*11:01; [6]
  Kd: 22.7 nM
HLA-A*68:01; [6]
  Kd: 8.88 nM

## VAAEMEEALR
HLA-A*68:01; [7]
  Kd: 128 nM

## VTFKNAHAK
HLA-A*11:01; [2]
  Kd: 58.4 nM
HLA-A*03:01; [2]
  Kd: 7.94 nM
HLA-A*68:01; [2]
  Kd: 58.4 nM

## WSYYCAGLK
HLA-A*03:01; [6]
  Kd: 12.2 nM

## YVSAITQAER
HLA-A*31:01; [4]
  Kd: 104 nM
HLA-A*68:01; [4]
  Kd: 14.3 nM
